Assay results as given in patent US20230293738A1 (Y MABS THERAPEUTICS, published 2023).
Each block holds one binder with its values, some of them ahead of it.

Key:
[1] = biological target: T1, human 4Ig-B7H3 (B7H3-4Ig-His) (human, UniProt Q5ZPR3 29-466); assay: SPR
T1 construct: Recombinant His-tagged protein immobilised on a CM5 chip; also called 41g-B7H3; human 4Ig-B7-H3 (dominant isoform); not shown: His tag
T1 sequence: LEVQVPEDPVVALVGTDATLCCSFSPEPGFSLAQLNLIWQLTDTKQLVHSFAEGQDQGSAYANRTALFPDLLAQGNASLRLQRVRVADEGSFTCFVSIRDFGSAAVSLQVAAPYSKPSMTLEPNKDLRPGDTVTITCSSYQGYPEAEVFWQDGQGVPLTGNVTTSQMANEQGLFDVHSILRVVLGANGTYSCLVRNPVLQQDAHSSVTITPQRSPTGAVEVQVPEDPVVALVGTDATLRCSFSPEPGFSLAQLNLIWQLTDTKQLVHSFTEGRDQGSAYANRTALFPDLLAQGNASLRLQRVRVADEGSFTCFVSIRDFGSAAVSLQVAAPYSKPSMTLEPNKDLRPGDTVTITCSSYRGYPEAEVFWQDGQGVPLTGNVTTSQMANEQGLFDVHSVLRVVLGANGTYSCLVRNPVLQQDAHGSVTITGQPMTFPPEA
Method: (§1) Both human B7H3 41g and 21g proteins were dissolved in PBS (Phosphate-Buffered Saline) to make 0.1 mg/ml stock solution and stored in −80° C. B7-H3 proteins were immobilized onto the CM5 sensor chip using Amine Coupling Kit. Both proteins were diluted to 10 ug/ml with 10 mM Sodium acetate, pH 5.0. […] A blank immobilized surface was used as a control
(§2) The data were analyzed by the 1:1 fitting model and default parameter setting for the rate constants using the Biacore T200 Evaluation Software, and the apparent association on rate constant (kon, ka), dissociation off rate constant (koff, kd) and equilibrium dissociation constant (KD=kd/ka) were calculated.

[2] = biological target: T2, human 2Ig-B7H3 (B7H3-2Ig-His) (human, UniProt Q5ZPR3 29-466); assay: SPR
T2 construct: Recombinant His-tagged protein immobilised on a CM5 chip; also called 21g-B7H3; B7H3-21g-His; not shown: His tag
T2 sequence: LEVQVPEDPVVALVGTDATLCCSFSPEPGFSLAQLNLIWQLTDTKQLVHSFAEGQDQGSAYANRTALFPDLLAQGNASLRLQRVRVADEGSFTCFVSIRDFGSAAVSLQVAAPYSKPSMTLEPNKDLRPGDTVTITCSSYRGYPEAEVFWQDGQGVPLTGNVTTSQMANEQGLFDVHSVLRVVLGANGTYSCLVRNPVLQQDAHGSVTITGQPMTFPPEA
Method: as §1, §2

[3] = biological target: T2, human 2Ig-B7H3 (B7H3-2Ig-His); assay: SPR, Biacore T200, 2Ig-B7H3-His on CM5 chip, 1:1 fit
Method: as §1, §2

[4] = biological target: T1, human 4Ig-B7H3 (B7H3-4Ig-His); assay: SPR, Biacore T200, 4Ig-B7H3-His on CM5 chip, 1:1 fit
Method: as §1, §2

[5] = biological target: T2, human 2Ig-B7H3 (B7H3-2Ig-His); assay: SPR; CHX-A''-DTPA conjugate, CAR 1.4, labeled with cold 175Lu
Method: as §1
(§3) Binding Assays: [0143] 1. Antibodies were diluted in HBS-EP buffer (10 mM HEPES, 150 mM NaCl, 3 mM EDTA, 0.05% Surfactant P20, pH 7.4) at varying concentrations (25-50-100-200-400 nM) prior to analysis. […] 2. Samples (60 ul) were injected over the sensor surface at a flow rate of 30 ul/min over 2 min. [0145] 3. Following completion of the association phase, dissociation was monitored in HBS-EP buffer for 10 min at the same flow rate. […] 4. At the end of each cycle, the surface was regenerated using 10 mM NaOH at a flow rate of 50 ul/min over 2×15 sec.

[6] = biological target: T2, human 2Ig-B7H3 (B7H3-2Ig-His); assay: SPR, Biacore T200, 2Ig-B7H3-His on CM5 chip, 1:1 fit; remark: listed apart in the source
Method: as §1, §3, §2

[7] = biological target: T1, human 4Ig-B7H3 (B7H3-4Ig-His); assay: SPR, Biacore T200, 4Ig-B7H3-His on CM5 chip, 1:1 fit; remark: listed apart in the source
Method: as §1, §3

[8] = biological target: T2, human 2Ig-B7H3 (B7H3-2Ig-His); assay: SPR, Biacore T200, 2Ig-B7H3-His on CM5 chip, 1:1 fit; DOTA conjugate, CAR 11.7, unlabeled
[9] = biological target: T1, human 4Ig-B7H3 (B7H3-4Ig-His); assay: SPR; remark: listed apart in the source
Method: as §1, §3

[10] = biological target: T2, human 2Ig-B7H3 (B7H3-2Ig-His); assay: SPR; remark: listed apart in the source
Method: as §1, §3

[11] = biological target: T2, human 2Ig-B7H3 (B7H3-2Ig-His); assay: SPR, Biacore T200, 2Ig-B7H3-His on CM5 chip, 1:1 fit; CHX-A''-DTPA conjugate, CAR 6.1, unlabeled
[12] = biological target: T2, human 2Ig-B7H3 (B7H3-2Ig-His); assay: SPR; CHX-A''-DTPA conjugate, CAR 3, labeled with cold 175Lu
Method: as §1, §3

[13] = biological target: T2, human 2Ig-B7H3 (B7H3-2Ig-His); assay: SPR, Biacore T200, 2Ig-B7H3-His on CM5 chip, 1:1 fit; CHX-A''-DTPA conjugate, CAR 3.6, unlabeled
[14] = biological target: T2, human 2Ig-B7H3 (B7H3-2Ig-His); assay: SPR; 127I-labeled 8H9
Method: as §1, §3

[15] = biological target: T2, human 2Ig-B7H3 (B7H3-2Ig-His); assay: SPR, Biacore T200, 2Ig-B7H3-His on CM5 chip, 1:1 fit; 127I-labeled 8H9, lot P76501A
Method: as §1, §3

[16] = biological target: T2, human 2Ig-B7H3 (B7H3-2Ig-His); assay: SPR; CHX-A''-DTPA conjugate, CAR 3.6, labeled with cold 175Lu
Method: as §1, §3

Kd [1]: 7.64 nM | t ½ [1]: 1.26 h | t ½ [2]: 28.1 h | Kd [3]: 0.217 nM | t ½ [3]: 28.1 h | Kd [4]: 7.64 nM | t ½ [4]: 1.26 h | Kd [5]: < 0.316 nM
B1: 175Lu-DTPA-8H9-antibody (CAR1.4) (antibody, mouse IgG1, kappa, V domains shown)
VH: QVQLQQSGAELVKPGASVKLSCKASGYTFTNYDINWVRQRPEQGLEWIGWIFPGDGSTQYNEKFKGKATLTTDTSSSTAYMQLSRLTSEDSAVYFCARQTTATWFAYWGQGTLVTVSA
VL: DIVMTQSPATLSVTPGDRVSLSCRASQSISDYLHWYQQKSHESPRLLIKYASQSISGIPSRFSGSGSGSDFTLSINSVEPEDVGVYYCQNGHSFPLTFGAGTKLELKR
modifications: p-SCN-Bn-CHX-A″-DTPA conjugated (CAR 1.4 per antibody), labelled with cold lutetium-175; sites not stated

T ½ [6]: 3.72 h | Kd [7]: 18.9 nM | t ½ [7]: 0.756 h | Kd [8]: 2.99 nM
B2: 8H9 antibody conjugated with p-SCN-Bn-DOTA, CAR 11.7 (antibody, mouse IgG1, kappa, V domains shown)
VH: B1 VH
VL: B1 VL
modifications: p-SCN-Bn-DOTA conjugated, CAR 11.7 per antibody; sites not stated
notes: Chelator conjugate, not metal-labelled

Kd [9]: 53.8 nM | t ½ [9]: 0.215 h | t ½ [10]: 0.394 h | T ½ [6]: 0.394 h | Kd [7]: 53.8 nM | t ½ [7]: 0.215 h | Kd [11]: 24.3 nM
B3: 8H9 antibody conjugated with p-SCN-Bn-CHX-A″-DTPA, CAR 6.1 (antibody, mouse IgG1, kappa, V domains shown)
VH: B1 VH
VL: B1 VL
modifications: p-SCN-Bn-CHX-A″-DTPA conjugated, CAR 6.1 per antibody; sites not stated
notes: as for B2

Kd [1]: 16.2 nM | t ½ [1]: 0.811 h | t ½ [2]: 5.94 h | Kd [3]: 1.8 nM | t ½ [3]: 5.94 h | Kd [4]: 16.2 nM | t ½ [4]: 0.811 h | Kd [12]: 1.8 nM
B4: 175Lu-DTPA-8H9-antibody (CAR3) (antibody, mouse IgG1, kappa, V domains shown)
VH: B1 VH
VL: B1 VL
modifications: p-SCN-Bn-CHX-A″-DTPA conjugated (CAR 3 per antibody), labelled with cold lutetium-175; sites not stated

Kd [9]: 26.9 nM | t ½ [9]: 0.508 h | t ½ [10]: 1.25 h | T ½ [6]: 1.25 h | Kd [7]: 26.9 nM | t ½ [7]: 0.508 h | Kd [13]: 9.46 nM
B5: 8H9 antibody conjugated with p-SCN-Bn-CHX-A″-DTPA, CAR 3.6 (antibody, mouse IgG1, kappa, V domains shown)
VH: B1 VH
VL: B1 VL
modifications: p-SCN-Bn-CHX-A″-DTPA conjugated, CAR 3.6 per antibody; sites not stated
notes: as for B2

Kd [1]: 0.666 nM | t ½ [1]: 4.39 h | t ½ [2]: 308 h | Kd [14]: < 0.0787 nM | t ½ [3]: 308 h | Kd [4]: 0.666 nM | t ½ [4]: 4.39 h | Kd [15]: < 0.0787 nM
B6: 127I-8H9-antibody P76501A (antibody, mouse IgG1, kappa, V domains shown)
VH: B1 VH
VL: B1 VL
modifications: labelled with iodine-127; sites not stated

Kd [1]: 18.5 nM | t ½ [1]: 0.722 h | t ½ [2]: 5 h | Kd [3]: 2.34 nM | t ½ [3]: 5 h | Kd [4]: 18.5 nM | t ½ [4]: 0.722 h | Kd [16]: 2.34 nM
B7: 175Lu-DTPA-8H9-antibody (CAR3.6) (antibody, mouse IgG1, kappa, V domains shown)
VH: B1 VH
VL: B1 VL
modifications: p-SCN-Bn-CHX-A″-DTPA conjugated (CAR 3.6 per antibody), labelled with cold lutetium-175; sites not stated
